Assays:
rGis2 [1] = target: T1, rGis2 (Cryptococcus neoformans (H99), UniProt J9VQ17 1-201); assay: competition; 25x and 50x competitor, UV-cross-linked EMSA; EMSA: 15 mM HEPES pH 7.4, 40 mM KCl, 5 mM MgCl2, 5% glycerol, 0.5 pmol probe in 20 µl, room temperature 20 min, then UV cross-link on ice 10 min; conditions: protein: recombinant; tags: His (pET14b, Ni-NTA); label: none; no G4
T1 sequence: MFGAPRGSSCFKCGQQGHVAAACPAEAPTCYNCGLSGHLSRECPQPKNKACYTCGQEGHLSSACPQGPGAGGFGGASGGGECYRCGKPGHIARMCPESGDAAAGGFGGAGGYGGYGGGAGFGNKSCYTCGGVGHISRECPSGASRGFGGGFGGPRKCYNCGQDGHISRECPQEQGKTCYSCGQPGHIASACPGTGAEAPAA

rZnf9 [2] = target: T2, rZnf9 (Cryptococcus neoformans (H99), UniProt J9VQH8 1-184); assay: as above; conditions: protein: recombinant; tags: His (pET14b, Ni-NTA); label: none; no G4
T2 sequence: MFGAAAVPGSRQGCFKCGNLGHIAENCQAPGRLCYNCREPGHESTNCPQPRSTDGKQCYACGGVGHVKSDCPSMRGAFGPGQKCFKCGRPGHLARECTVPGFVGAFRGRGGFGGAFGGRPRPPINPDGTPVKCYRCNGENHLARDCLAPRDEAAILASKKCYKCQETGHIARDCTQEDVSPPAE

rGis2 [3] = target: T1, rGis2; assay: UV-cross-linked EMSA; 5 mM Mg2+; EMSA: 15 mM HEPES pH 7.4, 40 mM KCl, 5 mM MgCl2, 5% glycerol, 0.5 pmol probe in 20 µl, room temperature 20 min, then UV cross-link on ice 10 min; conditions: protein: recombinant; tags: His (pET14b, Ni-NTA); label: 5'-TYE705; putative intramolecular G4
rZnf9 [4] = target: T2, rZnf9; assay: as above; conditions: protein: recombinant; tags: His (pET14b, Ni-NTA); label: 5'-TYE705; putative intramolecular G4

UGCAGUGGAGUUGGAGUGAAACCAAACCGUUGGGCAGUGGGCCCGUGGAU (ssRNA) [mt competitor (cons mt)]
binding result (rGis2 [1]): no binding | binding result (rZnf9 [2]): no binding

UGCAGUGGAGUUGGAGUGGGGAUGGGAUGUUGGGCAGUGGGCCCGUGGAU (structured_RNA) [TYE705-RPL2-3'UTR]
binding result (rGis2 [3]): binds | binding result (rZnf9 [4]): binds
